Starred links: 1 amine or outer side, 2 acyl side, 3 side chain; linkers in the order of their positions; H or OH if unused. Positions of bridges follow the written chain, without caps; N, C: chain ends. Non-standard residues stand in square brackets, D forms with d. Primed or numbered codes have the meaning given here. *: point of attachment. PyrS2″ = (S)-3-amino-1-((pent-4-en-1-yloxy)carbonyl)pyrrolidine-3-carboxylic acid (stapling residue), C=CCCCOC(=O)N1CC[C@@](N[*:1])(C(=O)[*:2])C1; B5(18) = 2,2-bis(4-pentenyl)glycine (2-amino-2-(pent-4-en-1-yl)hept-6-enoic acid), stitching residue, C=CCCCC(CCCC=C)(N[*:1])C(=O)[*:2]; TfeGA = (S)-2-amino-3-((carboxymethyl)(2,2,2-trifluoroethyl)amino)propanoic acid, O=C([C@H](CN(CC(=O)[*:3])CC(F)(F)F)N[*:1])[*:2]; PyrS2 = (S)-3-amino-1-((pent-4-en-1-yloxy)carbonyl)pyrrolidine-3-carboxylic acid, C=CCCCOC(=O)N1CC[C@@](N[*:1])(C(=O)[*:2])C1; B5(3) = 2,2-bis(4-pentenyl)glycine (stitching residue), C=CCCCC(CCCC=C)(N[*:1])C(=O)[*:2]; Me3AdamantC = 3,5,7-trimethyladamantane-1-carbonyl, CC12CC3(C)CC(C)(C1)CC(C(=O)*)(C2)C3; B5(28) = 2,2-bis(4-pentenyl)glycine, C=CCCCC(CCCC=C)(N[*:1])C(=O)[*:2]; 2F3MeF = Cc1cccc(C[C@H](N[*:1])C(=O)[*:2])c1F; Phe(2-CF3) = N[C@@H](Cc1ccccc1C(F)(F)F)C(=O)O; Phe(3-Cl) = N[C@@H](Cc1cccc(Cl)c1)C(=O)O; Phe(2-Br) = N[C@@H](Cc1ccccc1Br)C(=O)O; Phe(2-Cl) = N[C@@H](Cc1ccccc1Cl)C(=O)O; Bta = N[C@@H](Cc1csc2ccccc12)C(=O)O; αAllylPro = C=CC[C@@]1(C(=O)O)CCCN1; tBuAla = CC(C)(C)C[C@H](N)C(=O)O; 3Thi = N[C@@H](Cc1ccsc1)C(=O)O; S8 = C=CCCCCCC[C@](C)(N)C(=O)O; AdamantC = not defined here; PyrS2(4) = not defined here; TfeGA″ = not defined here; Octanoyl = CCCCCCCC(=O)*; Butyryl = CCCC(=O)*
T1: B-cat-Halo (UniProt P35222 1-781, HaloTag NanoBRET 618 Ligand bound to the HaloTag in the assay)
T1 sequence (looked up): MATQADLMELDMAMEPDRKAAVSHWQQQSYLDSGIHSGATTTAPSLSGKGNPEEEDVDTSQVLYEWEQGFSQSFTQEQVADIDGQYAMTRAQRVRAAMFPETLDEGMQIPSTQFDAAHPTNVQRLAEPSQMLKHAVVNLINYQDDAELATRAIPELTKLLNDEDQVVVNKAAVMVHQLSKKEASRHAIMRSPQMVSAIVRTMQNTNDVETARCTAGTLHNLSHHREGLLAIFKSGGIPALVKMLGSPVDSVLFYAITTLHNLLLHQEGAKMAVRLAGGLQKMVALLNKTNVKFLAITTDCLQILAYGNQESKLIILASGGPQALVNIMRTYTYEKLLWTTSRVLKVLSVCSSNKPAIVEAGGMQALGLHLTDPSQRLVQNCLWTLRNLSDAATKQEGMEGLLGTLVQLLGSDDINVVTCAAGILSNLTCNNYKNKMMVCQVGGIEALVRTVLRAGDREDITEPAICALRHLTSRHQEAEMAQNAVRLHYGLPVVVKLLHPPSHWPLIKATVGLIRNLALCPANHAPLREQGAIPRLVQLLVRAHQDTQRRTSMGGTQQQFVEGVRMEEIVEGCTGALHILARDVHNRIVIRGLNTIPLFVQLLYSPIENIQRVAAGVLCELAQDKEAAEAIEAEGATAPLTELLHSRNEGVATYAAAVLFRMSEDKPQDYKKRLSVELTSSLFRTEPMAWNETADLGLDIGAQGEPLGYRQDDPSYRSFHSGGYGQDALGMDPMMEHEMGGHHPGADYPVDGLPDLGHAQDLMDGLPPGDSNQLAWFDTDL

T2: B-cat-Halo (UniProt P35222 1-781)
T2 sequence (looked up): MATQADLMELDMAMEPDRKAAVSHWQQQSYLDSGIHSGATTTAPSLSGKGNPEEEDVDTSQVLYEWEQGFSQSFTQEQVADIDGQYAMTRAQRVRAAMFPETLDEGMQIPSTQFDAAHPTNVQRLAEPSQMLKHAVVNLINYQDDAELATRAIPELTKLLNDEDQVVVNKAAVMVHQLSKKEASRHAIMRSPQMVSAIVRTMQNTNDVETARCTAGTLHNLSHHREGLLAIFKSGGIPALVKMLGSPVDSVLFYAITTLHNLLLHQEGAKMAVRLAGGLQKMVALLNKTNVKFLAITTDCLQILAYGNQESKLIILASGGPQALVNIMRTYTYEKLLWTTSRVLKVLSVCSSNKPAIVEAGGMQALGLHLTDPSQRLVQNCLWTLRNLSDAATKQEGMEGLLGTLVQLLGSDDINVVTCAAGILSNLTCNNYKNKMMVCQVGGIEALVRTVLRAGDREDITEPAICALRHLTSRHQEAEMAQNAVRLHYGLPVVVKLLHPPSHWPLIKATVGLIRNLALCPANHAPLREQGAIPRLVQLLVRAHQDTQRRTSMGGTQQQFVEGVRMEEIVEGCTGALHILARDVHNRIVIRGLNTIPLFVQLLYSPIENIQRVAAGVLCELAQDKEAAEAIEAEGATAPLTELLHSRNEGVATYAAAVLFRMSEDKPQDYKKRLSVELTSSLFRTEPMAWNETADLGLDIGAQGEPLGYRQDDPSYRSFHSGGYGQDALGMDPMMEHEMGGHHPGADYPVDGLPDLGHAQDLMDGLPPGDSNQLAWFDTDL


Biological target: T1, B-cat-Halo
Test: cell-based or functional assay

Row | NanoBRET Abs IC50 [µM] | Binder
1 | 20 | Ac-[αAllylPro]D[tBuAla][B5(3)]D[TfeGA]AAFN[PyrS2″][Phe(3-Cl)][Bta]Q-NH2 (staple 1-4, 4-11; not fully specified) [I-925]
2 | 13.6 | Ac-[αAllylPro]D[tBuAla][B5(3)]DDAAFN[PyrS2(4)][3Thi][Bta]QK(1Napc)-NH2 (staple 1-4, 4-11; reading uncertain; also: printed as Ac-PL3-Asp-Npg-B5-Asp-Asp-Ala-Ala-Phe-Asn-PyrS2-3Thi-BztA-Gln-[1Napc]Lys-NH2) [I-916]
3 | 17.7 | Ac-[αAllylPro]D[tBuAla][B5(3)]DDAAFN[PyrS2″][3Thi][Bta]QK(Me3AdamantC)-NH2 (staple 1-4, 4-11) [I-920]
4 | 3.3 | Ac-[αAllylPro]D[tBuAla][B5(3)]D[TfeGA]AAFN[PyrS2″][Phe(2-Br)][Bta]Q-NH2 (staple 1-4, 4-11) [I-924]
5 | 29.9 | Ac-[αAllylPro]D[tBuAla][B5(3)]D[TfeGA]AAFN[PyrS2″][Phe(3-Cl)][Bta]Q-NH2 (staple 1-4, 4-11; not fully specified) [I-926]
6 | 11.1 | Ac-[αAllylPro]D[tBuAla][B5(3)]DDAAFN[PyrS2″][3Thi][Bta]QK(Octanoyl)-NH2 (staple 1-4, 4-11; not fully specified; printed as Ac-PL3-Asp-Npg-B5-Asp-Asp-Ala-Ala-Phe-Asn-PyrS2-3Thi-BztA-Gln-[Oct]Lys-NH2) [I-918]
7 | 6.1 | Ac-[αAllylPro]D[tBuAla][B5(3)]D[TfeGA]AAFN[PyrS2″][Phe(2-CF3)][Bta]Q-NH2 (staple 1-4, 4-11; not fully specified) [I-928]
8 | 8.2 | Ac-[αAllylPro]D[tBuAla][B5(3)]D[TfeGA″]AAFN[PyrS2(4)][2F3MeF][Bta]Q-NH2 (staple 1-4, 4-11; reading uncertain; also: staple stereoisomer, earlier-eluting HPLC peak) [I-927]
9 | 19.7 | Ac-[αAllylPro]D[tBuAla][B5(3)]DDAAFN[PyrS2″][3Thi][Bta]QK(Butyryl)-NH2 (staple 1-4, 4-11) [I-917]
10 | 6 | Ac-[αAllylPro]D[tBuAla][B5(3)]D[TfeGA]AAFF[PyrS2″][Phe(2-Cl)][Bta]Q-NH2 (staple 1-4, 4-11) [I-923]
11 | 15.2 | Ac-[αAllylPro]D[tBuAla][B5(3)]DDAAFN[PyrS2(4)][3Thi][Bta]QK(AdamantC)-NH2 (staple 1-4, 4-11; reading uncertain; also: printed as Ac-PL3-Asp-Npg-B5-Asp-Asp-Ala-Ala-Phe-Asn-PyrS2-3Thi-BztA-Gln-[AdamantC]Lys-NH2) [I-919]
12 | 10.3 | Ac-[αAllylPro]D[tBuAla][B5(3)]D[TfeGA]AAFN[S8][Phe(2-Cl)][Bta]Q-NH2 (staple 1-4, 4-11) [I-929]
13 | 15.5 | Ac-[αAllylPro]D[tBuAla][B5(3)]DDAAFN[PyrS2(4)][3Thi][Bta]QK(2Napc)-NH2 (staple 1-4, 4-11; reading uncertain; also: printed as Ac-PL3-Asp-Npg-B5-Asp-Asp-Ala-Ala-Phe-Asn-PyrS2-3Thi-BztA-Gln-[2Napc]Lys-NH2) [I-915]
14 | 2.7 | Ac-[αAllylPro]D[tBuAla][B5(28)]D[TfeGA″]AAFT[PyrS2][Phe(2-Cl)][Bta]Q-NH2 (staple 1-4, 4-11; reading uncertain) [I-922]

Biological target: T2, B-cat-Halo
Test: cell-based or functional assay

Row | NanoBRET Abs IC50 [µM] | Binder
15 | 8.9 | Ac-[αAllylPro]D[tBuAla][B5(18)]DDAAFS[PyrS2″][Phe(2-Cl)][Bta]Q-NH2 (staple 1-4, 4-11) [I-1017]

From patent US20240116985A1 (published 2024)
